From paper PMC7464691, “Modulation of Amyloidogenic Peptide Aggregation by Photoactivatable CO-Releasing Ruthenium(II) Complexes” (Pharmaceuticals, 2020)

Biological target: the molecule itself
Assay: ESI-MS; peptide 100 uM in 10 mM borate buffer pH 9, incubated with compound 2 (1:10) for 0 h (UV-irradiated) or 24 h (not irradiated), diluted in 15 mM ammonium acetate

B1: nucleophosmin 1 (NPM1) 264-277, second helix (H2) of the C-terminal domain (peptide)
peptide: Ac-VEAKFINYVKNCFR-NH2
notes: nucleophosmin 1 (NPM1), helix H2 of the C-terminal domain, residues 264-277; By ESI-MS the peptide is present as a monomer and as a disulfide-bridged dimer; also called NMP1_(264–277); NPM1_(264–277)(M); source: synthetic peptide (SPPS), treated with HFIP, purified by RP-HPLC
  stoichiometry N: 2
